From publication PMC9755681, “Next-generation sequencing of a combinatorial peptide phage library screened against ubiquitin identifies peptide aptamers that can inhibit the in vitro ubiquitin transfer cascade” (Frontiers in Microbiology, 2022) come the findings set out here.

In assay [1] the target is T1, uniformly labeled 15N-human ubiquitin (human, UniProt P0CG48 1-76, uniformly 15N-labeled).
T1 construct: ubiquitin, human; the 76-residue ubiquitin unit cut from its precursor; also called N15-labeled Ubiquitin; source: bought: Asla Biotech (Latvia)
The assay can be described thus: NMR titration; 1H-15N HSQC and 15N relaxation of 0.5 mM 15N-ubiquitin, 10 mM sodium phosphate pH 5.0, 298 K, without and with peptide (0.64 mg peptide 12 or 0.7 mg peptide 37 in 0.55 ml). Conditions: both partners purified.

In assay [2] the target is T2, Ubiquitin (ubiquitination reactions, HDX-MS and reverse-phase HPLC) (human, UniProt P0CG48 1-76).
T2 construct: ubiquitin, human; the 76-residue ubiquitin unit cut from its precursor; That the HDX/HPLC ubiquitin is the Boston Biochem one is surmised; also called ubiquitin protein; native ubiquitin; source: bought: Boston Biochem (ubiquitination reactions)
The assay can be described thus: HDX-MS; global deuteration of intact ubiquitin, 2 uM, ubiquitin to peptide 1:2 and 1:5, room temperature, 1 min in deuterated water with 0.1% DMSO. The following applies: both partners purified.

No end group written: not given here. *: point of attachment. Biotin = O=C1N[C@H]2[C@H](CS[C@H]2CCCCC(=O)*)N1

B1: Non-tagged peptide-12 (AKFDMHIATRLS), non-biotinylated with a C-terminal NH2 (peptide)
peptide: AKFDMHIATRLS-NH2
notes: phage-selected 12-mer; source: synthetic peptide
In the case of B1, the binding result in assay [1] is on record as “binds”.

B2: peptide-37 (Biotin-SGSG-FIPAQLHFHWRS-amide) (peptide)
peptide: Biotin-SGSGFIPAQLHFHWRS-NH2
SMILES: CC[C@H](C)[C@H](NC(=O)[C@H](Cc1ccccc1)NC(=O)CNC(=O)[C@H](CO)NC(=O)CNC(=O)[C@H](CO)NC(=O)CCCC[C@@H]1SC[C@@H]2NC(=O)N[C@@H]21)C(=O)N1CCC[C@H]1C(=O)N[C@@H](C)C(=O)N[C@@H](CCC(N)=O)C(=O)N[C@@H](CC(C)C)C(=O)N[C@@H](Cc1c[nH]cn1)C(=O)N[C@@H](Cc1ccccc1)C(=O)N[C@@H](Cc1c[nH]cn1)C(=O)N[C@@H](Cc1c[nH]c2ccccc12)C(=O)N[C@@H](CCCNC(=N)N)C(=O)N[C@@H](CO)C(N)=O
notes: spacer; phage-selected 12-mer; also called synthetic peptide 37; source: synthetic peptide (Chiron Mimotopes, Australia)
Take B2: the binding result in assay [2] is “binds”.

B3: Non-tagged Peptide-37 (FIPAQLHFHWRS), non-biotinylated with a C-terminal NH2 (peptide)
peptide: FIPAQLHFHWRS-NH2
notes: as for B1
Regarding B3, the binding result in assay [1] is listed as “binds”.

B4: peptide-12 (Biotin-SGSG-AKFDMHIATRLS-amide) (peptide)
peptide: Biotin-SGSGAKFDMHIATRLS-NH2
SMILES: CC[C@H](C)[C@H](NC(=O)[C@H](Cc1c[nH]cn1)NC(=O)[C@H](CCSC)NC(=O)[C@H](CC(=O)O)NC(=O)[C@H](Cc1ccccc1)NC(=O)[C@H](CCCCN)NC(=O)[C@H](C)NC(=O)CNC(=O)[C@H](CO)NC(=O)CNC(=O)[C@H](CO)NC(=O)CCCC[C@@H]1SC[C@@H]2NC(=O)N[C@@H]21)C(=O)N[C@@H](C)C(=O)N[C@H](C(=O)N[C@@H](CCCNC(=N)N)C(=O)N[C@@H](CC(C)C)C(=O)N[C@@H](CO)C(N)=O)[C@@H](C)O
notes: spacer; phage-selected 12-mer; also called synthetic peptide 12; source: synthetic peptide (Chiron Mimotopes, Australia)
Consider B4, for which the binding result in assay [2] is recorded as “binds”.
